Changes are numbered by the printed parent chain.
Columns and labels:
[1] = target: AtsR (NCgl0886), native protein as run on the size exclusion column (Corynebacterium glutamicum); assay: SEC; Superdex 200 10/300 GL; AtsR incubated with an oxidant before the run (CHP in the text, H2O2 in the legend); two species, oxidized dimer and native dimer
[2] = target: AtsR (NCgl0886), native protein as run on the size exclusion column (Corynebacterium glutamicum); assay: not stated; reduced AtsR, Additional file 1 Fig. S10A (Purification of AtsR)
[3] = target: AtsR (NCgl0886), native protein as run on the size exclusion column (Corynebacterium glutamicum); assay: SEC; Superdex 200 10/300 GL, 50 mM potassium phosphate pH 7.4, 0.15 M NaCl, calibrated with mass markers; native AtsR untreated; AtsR:C123SC187S reduced (20 µM protein with 50 mM DTT)
[4] = system: T1, AtsR (NCgl0886) (Corynebacterium glutamicum (RES167 parental strain)), ORF:74efc9ce; assay: EMSA; conditions: 10 mM Tris-HCl pH 7.4 (Fig. 6A legend: pH 8.0), 5 mM MgCl2, 50 mM KCl, 5% glycerol, 0.1% NP40, 1 ug poly(dI:dC), 1 mM DTT, 20 ul, 40 ng DNA, room temperature …
T1 sequence: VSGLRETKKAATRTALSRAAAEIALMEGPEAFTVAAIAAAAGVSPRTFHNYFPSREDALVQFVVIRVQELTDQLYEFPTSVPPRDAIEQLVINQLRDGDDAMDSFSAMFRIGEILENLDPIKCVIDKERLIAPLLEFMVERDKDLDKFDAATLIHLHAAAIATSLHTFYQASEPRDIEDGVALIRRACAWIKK

[5] = system: T2, AtsR:C123SC187S C123S;C188S (Corynebacterium glutamicum (RES167 parental strain)), ORF:74efc9ce; assay: EMSA; conditions: 10 mM Tris-HCl pH 7.4 (Fig. 6A legend: pH 8.0), 5 mM MgCl2, 50 mM KCl, 5% glycerol, 0.1% NP40, 1 ug poly(dI:dC), 1 mM DTT, 20 ul, 40 ng DNA, room temperature …
T2 sequence: T1 sequence with C123S, C188S

[6] = target: His6-AtsR (Corynebacterium glutamicum); assay: cross-linking; disulfide bond formed by oxidant: 20 µM protein with 5 mM H2O2 or 4 mM CHP for 30 min, boiled, 15% nonreducing SDS-PAGE, Coomassie stain
[7] = target: His-tag-free AtsR:C123SC187S (Corynebacterium glutamicum); assay: SEC; Superdex 200 10/300 GL, 50 mM potassium phosphate pH 7.4, 0.15 M NaCl, calibrated with mass markers; native AtsR untreated; AtsR:C123SC187S reduced (20 µM protein with 50 mM DTT)
[8] = system: AtsR (NCgl0886) (Corynebacterium glutamicum (RES167 parental strain)); assay: EMSA; conditions: apparent KD; 10 mM Tris-HCl pH 7.4 (Fig. 6A legend: pH 8.0), 5 mM MgCl2, 50 mM KCl, 5% glycerol, 0.1% NP40, 1 ug poly(dI:dC), 1 mM DTT, 20 ul, 40 ng DNA, room temperature …
[9] = system: AtsR:C123SC187S (Corynebacterium glutamicum (RES167 parental strain)); assay: EMSA; conditions: apparent KD; unit inferred, nM implied from AtsR; 10 mM Tris-HCl pH 7.4 (Fig. 6A legend: pH 8.0), 5 mM MgCl2, 50 mM KCl, 5% glycerol, 0.1% NP40, 1 ug poly(dI:dC), 1 mM DTT, 20 ul, 40 ng DNA, room temperature …

Substance: AtsR (NCgl0886), native protein as run on the size exclusion column (natural protein)
- stoichiometry N [1]: 2
- stoichiometry N [2]: 2
- stoichiometry N [3]: 2

Substance: GCCCACAGCATAGAACTAAAACAGTATGCTTGTCCTGCTAAATGTGAATTTTTAAGAGATTCATCCCACACAATTACGAAAAAACCAGATTGCCCACAAATTAGTCTTCGAACTTTAATCAACACCACACCCAAAGCTAAACTTGCGCTCGTTGTGCAAAATTGCATTCAGGCTGAAAAATTCCTAAAGGGACTCCGTCCGAATAATTGGAAAGCCCAGAAGAACAGTCAAC (double strand) [Pncgl0887 (fragment A, 232 bp)]
- Kd [4]: 34 nM
- binding [4]: binds
- Kd [5]: 42 nM
- binding [5]: binds

Substance: GTGGGCAGCGGAATTTCCATACCTTTAAGGATATGCACCGGGGGAAACTATGGGGATTTTGGGGGAGGTTGTTACAAAACCATACGTCTGTGAAGATATGACGAGTGCATGCCCAAAATAATGCATAGGAAAAAGGAAGAGTTAACAATGCGTAAAGGAATTTCCCGCGTCCTCTCGGTAGCGGTTGCTAGTTCTATTGGATTCG (double strand) [Pncgl0884 (205 bp)]
- binding [4]: no binding

Substance: GTTGTAGACAACAGTCAGATCGCCGTCATCGTATTCATCAAGAATATTGGTGACCTTCTCACGATCCTCTGCGGATATATCCATGGCAGAATCTGCATCAAAAGTCATCGAGATGATGCCGGTAGTCTCATCTGCACTCAGTGGACTAATCGACTCAATATCTGCGGCGATCTTCTCCGCAGGTACACCCTGAGCCTCCAGGGCTGGGGTCATCTGAGCAGCCACACCCTG (double strand) [ncgl0887 coding region control (232 bp)]
- binding [4]: no binding

Substance: His6-AtsR (natural protein)
- stoichiometry N [6]: 2

Substance: His-tag-free AtsR:C123SC187S (natural protein)
- stoichiometry N [7]: 2

Substance: Pncgl0887 (fragment A, 232 bp)
- Kd [8]: 34 nM
- Kd [9]: 42 nM

From PMC9210681
